Measured values as given in patent CN112063765A (BEIJING XINSONG BIOLOGICAL TECH CO LTD, dated 2020).

Key:
Experiment in all cases: cell-based or functional assay
[1] = biological target: A/swine/Jalisco/12-13/2012(H1N1) (Influenza A virus …)
[2] = biological target: Solomon Islands/3/2006(H1N1) (Influenza A virus Solomon …)
[3] = biological target: New Caledonia/20/99(H1N1) (Influenza A virus New Caledonia/20/99 …)

B1: 3E6单克隆抗体 (antibody, V domains shown)
VH: EVQLEESGTELARPGASVKLALKASGYIFSSYSGQWIKQRPGAGLELIGYPYPGWIDTRYTQKLTGKATLTADKSSSTLYMQLSSLASEDSAVAYCAGSYFSSDAWGLGTTLAVSS
VL: DIVLTQSPALMAASAGEKVTITCAVSQSIQSGYLAWYQQKSGISPKPWIYDTSNQAGGVPARFSGAGSGTSYSLTITSMEAEDAATYYCAQGTTSPLSFGAGTKLELK
中和活性 (Lenti-pseudovirus, 293A细胞, β-gal; 抗体浓度 0.01μg/mL) [1]: 0.974 | 中和活性 (Lenti-pseudovirus, 293A细胞, β-gal; 抗体浓度 0.01μg/mL) [2]: 0.843 | 中和活性 (Lenti-pseudovirus, 293A细胞, β-gal; 抗体浓度 0.01μg/mL) [3]: 0.865
